# Experimental data taken from patent US11447550B2, “Peptides for molecular detection of PD-L1” (THE CURATORS OF THE UNIVERSITY OF MISSOURI, priority 2016, dated 2022).
# Ends that are not written are not given here.
# Tests used:
# [1] = molecular target: T1, PD-L1 (Homo sapiens, UniProt Q9NZQ7); test: Peptide library study of stability and PD-L1 affinity; format: binding; settings: library of synthesized peptides
# Procedure: Initial research was focuses on understanding the interaction of PD-1 and PD-L1 based on X-ray crystal structure data (FIG. 14) with the goal of identifying the peptide sequence that is selectively mediating the interactions. After the crystal structure of each protein was identified, a proprietary Fortran program was used to analyze which amino acid sequences interact most closely between the two proteins. Number of occurrences for each sequence was calculated and used to identify the peptide sequences used in this study. […] As a first step, a library of peptides was synthesized and the stability and PD-L1 affinity was studied. […] Data related to anti-PD-L1 and mock peptide was used to synthesize peptides for this study. The binding sequences of each peptide were further modified to incorporate either biotin or fluorophore for antigen detection, and to increase solubility of the peptide.
# [2] = molecular target: T1, PD-L1; test: Flow cytometry using patient tissues and whole blood; format: cell-based; parameters: Seven PD-L1 expressing NSCLC patient tissues were obtained from the MU OneHealth tissue bank; tissue MU OneHealth tissue bank; U.S. Biomax (TMA) LC1923; host or cells: FFPE placenta, seven NSCLC patient tissues, 192-case lung cancer tissue microarray, four Hodgkin's lymphoma cases
# Procedure: Cases were evaluated using flow cytometry for suspected hematopoietic neoplasms. A portion of each fresh specimen was collected into RPMI. […] Any erythrocytes within the specimens were lysed with BD PharmLyse (San Jose, Calif.) and the specimens were washed with BD Staining Buffer with BSA (San Jose, Calif.). Each sample was evaluated using BD FACSCanto II, a three laser, eight-color flow cytometer (San Jose, Calif.) within 24 hours of collection. 50,000 events were collected for each sample. The expression data were analyzed using BD FACSDiva software, version 8.0 (San Jose, Calif.). Cases diagnosed as non-hematopoietic tumors were further subjected to evaluation with PDL-1 peptide if material was available combined with CK to identify the epithelial component. The cell suspensions were stained with 10 μl of BD Cytokeratin FITC (clone CAM5.2), 20 μl of Cy5-conjugated peptide solution, and 10 μl of BD Pharmingen CD274 PE (clone MIH1), incubated in the dark for 30 minutes, washed with BD Stain Buffer with BSA, and reconstituted to 500 μl with Stain Buffer with BSA in […] polystyrene tubes for analysis. The specimens were analyzed on the FACS Canto II using the same panel template, gating strategy, and collection events as the cell line specimens.
# PD-L1 expression in patient tissues was analyzed using RK-10-Cy5 and compared to expression in MDA-MB-231 cells and a negative control of normal blood (FIG. 7A). The MFI of the MDA-MB-231 cells was 9,448, while the whole blood gave an MFI of −123. Squamous cell carcinoma and metastatic melanoma samples were investigated for PD-L1 expression using the previously mentioned MFIs as high and negative, respectively. The squamous cell carcinoma was shown as having an MFI of 107,808, while the melanoma sample gave an MFI of 1,250. […] Since […] is consistent with circulating tumor cells, it was thought that RK-10-Cy5 peptide could be used to detect CTCs. To see whether detection of low cell counts was possible, whole blood samples were spiked with MDA-MB-231 cells. MDA-MB-231 were diluted with whole blood, then treated with RK-10-Cy5 and cytokeratin before staining. These samples were also treated with a phycoerythrin-conjugated antibody (cd274) against PD-L1 to further verify PD-L1 detection. Positive signals were detected of cytokeratin and PD-L1 expression at low counts of ˜15 cells in 1 mL whole blood sample using both the peptide and the antibody (FIG. 7B).
# [3] = molecular target: T1, PD-L1; test: Flow cytometry using cultured cell lines with Cy5-conjugated peptide; format: cell-based; parameters: Seven PD-L1 expressing NSCLC patient tissues were obtained from the MU OneHealth tissue bank; tissue MU OneHealth tissue bank; U.S. Biomax (TMA) LC1923; host or cells: FFPE placenta, seven NSCLC patient tissues, 192-case lung cancer tissue microarray, four Hodgkin's lymphoma cases; settings: for MFI relative to MDA-MB-231: all lower peptide concentrations, FIG. 6A
# Procedure: Cell lines MDA-MB-231, Y79, and MCF-7 were purchased from ATCC, thawed, and grown in culture to confluency. When confluent, adherent cells were removed from the flask by scraping gently with a cell scraper and media removed using centrifugation. Suspension cells were pipetted from the flask and centrifuged to remove media. Cell lines were resuspended in Eppendorf tubes in 100 μL PBS at a concentration of 5×10^6 cells per mL. Cy5-conjugated peptide solution was then added to the tubes to make the desired concentration of peptide in 200 μL. Eppendorf tubes were then placed in the incubator for 1 hour and vortexed at the 30-minute mark. After 1 hour, cell lines were analyzed on a BD FACS Canto II, a 3-laser, 8-color flow cytometer (San Jose, Calif.) using Diva 8.0 acquisition and analysis software (San Jose, Calif.). The cells of interest were gated using Forward and Side scatter (FSC/SSC) and positive antibody expression. 10,000 singlet events were collected for each specimen.
# RK-10-Cy5 was then investigated for PD-L1 specificity using flow cytometry in cultured cell lines and patient tissues. […] To set our conditions for flow cytometry, titrations of PD-L1 peptide using all three cell lines were first examined. In each of the samples double-positives were selected by analyzing expression of both cytokeratin (FITC channel) and PD-L1 (Cy5 channel) (FIG. 15). […] Samples containing 0.1 and 0.05 mg/mL concentrations were deemed to have fluorescence intensities too high for accurate analysis for each cell line. Y79 and MCF7 both have a much lower PD-L1 expression than MDA-MB-231, which correlates with expression seen using Cy5 conjugated peptide and comparing the cell lines with flow cytometry. […] The MCF7 sample containing 0.005 mg/ml was much higher than anticipated due to this sample being treated twice with peptide. 0.005 mg/mL was selected as optimal concentration based on these comparisons, and all subsequent flow cytometry experiments were performed using this concentration. Lung cancer cell lines A549 (low PD-L1) and HCC827 (high PD-L1) were investigated for PD-L1 expression using both phycoerythrin-conjugated cd274 and RK-10-Cy5 (FIG. 6B). Cell lines were cultured as before and treated with either antibody or peptide in buffer. […] The antibody associated fluorescence was higher than the peptide associated fluorescence in both samples, which is attributed to differences in titrating peptide and antibody.
# T1 sequence (Q9NZQ7 19-290): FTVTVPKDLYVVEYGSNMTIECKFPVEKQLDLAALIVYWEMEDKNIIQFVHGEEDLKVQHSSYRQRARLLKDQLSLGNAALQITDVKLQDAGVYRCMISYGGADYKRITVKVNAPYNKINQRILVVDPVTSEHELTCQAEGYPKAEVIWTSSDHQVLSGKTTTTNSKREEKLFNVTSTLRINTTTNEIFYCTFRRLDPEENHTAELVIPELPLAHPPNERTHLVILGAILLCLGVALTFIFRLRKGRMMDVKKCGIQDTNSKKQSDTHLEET
substance,measurement,setting,value
Cy5-GSGSGSTYLCGAISLAPKAQIKESL [RK-10-Cy5],PD-L1 affinity,[1],high affinity
same,mean fluorescence intensity (MFI),[2]; metastatic melanoma patient sample,"1,250"
same,mean fluorescence intensity (MFI),"[2]; normal whole blood (negative control), FIG. 7A",−123
same,mean fluorescence intensity (MFI),[2]; squamous cell carcinoma patient sample,"107,808"
same,low cell count at which positive cytokeratin and PD-L1 signals were detected,"[2]; whole blood spiked with MDA-MB-231 cells, FIG. 7B",~15 cells in 1 mL whole blood
same,MFI relative to MDA-MB-231,[3]; MCF7 cells (no meaningful PD-L1 expression),close to tenfold lower
same,mean fluorescence intensity (MFI),"[3]; MDA-MB-231 cells (very high PD-L1), Cy5 channel, 0.005 mg/mL peptide, FIG. 7A","9,448"
same,MFI relative to MDA-MB-231,[3]; Y79 cells (no meaningful PD-L1 expression),close to tenfold lower
same,"signal associated with PD-L1 expression, HCC827 versus A549","[3]; lung cancer lines HCC827 (high PD-L1) vs A549 (low PD-L1), FIG. 6B",much higher signal
